The values below come from article PMC10354024, “Conformational trajectory of allosteric gating of the human cone photoreceptor cyclic nucleotide-gated channel” (Nature Communications, 2023).

The target of one series is T1, human CNGB3, full-length (human, UniProt Q9NQW8-1 1-809, N339 glycosylation site).
T1 construct: human cone photoreceptor cyclic nucleotide-gated channel subunit CNGB3, NCBI NP_061971.3, full length; modelled residues L206 to R643; One copy of this subunit stands with three CNGA3 in the channel tetramer; Cloned in the vector pEZT-BM (Addgene #74099); source: HEK 293S GnTi- cells (BacMam), co-infected with CNGA3 virus, purified (amylose resin, StrepTrap, Superose 6) in GDN
T1 sequence (looked up): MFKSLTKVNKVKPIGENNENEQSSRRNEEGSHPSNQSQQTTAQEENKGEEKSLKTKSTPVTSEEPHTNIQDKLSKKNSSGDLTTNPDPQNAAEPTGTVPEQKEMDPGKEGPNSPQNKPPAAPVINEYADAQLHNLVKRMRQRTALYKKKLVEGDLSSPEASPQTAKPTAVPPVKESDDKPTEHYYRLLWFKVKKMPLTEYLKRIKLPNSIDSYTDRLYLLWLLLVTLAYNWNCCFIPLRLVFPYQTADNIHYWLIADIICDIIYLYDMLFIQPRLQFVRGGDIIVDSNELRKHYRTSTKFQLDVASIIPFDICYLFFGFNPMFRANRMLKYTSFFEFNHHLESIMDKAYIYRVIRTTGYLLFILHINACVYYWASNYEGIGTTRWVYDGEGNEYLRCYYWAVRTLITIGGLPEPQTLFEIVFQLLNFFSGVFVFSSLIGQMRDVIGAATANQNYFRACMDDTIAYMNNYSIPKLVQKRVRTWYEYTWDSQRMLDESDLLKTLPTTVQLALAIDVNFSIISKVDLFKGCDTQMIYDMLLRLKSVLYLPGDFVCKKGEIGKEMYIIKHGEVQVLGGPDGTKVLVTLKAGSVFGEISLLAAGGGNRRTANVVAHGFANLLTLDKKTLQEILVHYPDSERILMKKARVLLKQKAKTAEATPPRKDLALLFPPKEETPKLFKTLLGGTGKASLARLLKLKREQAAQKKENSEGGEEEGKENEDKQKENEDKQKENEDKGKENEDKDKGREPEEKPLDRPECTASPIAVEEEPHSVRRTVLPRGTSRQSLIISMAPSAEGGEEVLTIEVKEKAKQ
Description: cryo-EM structure; full-length CNGA3/CNGB3 co-expressed and co-purified, in 0.02% GDN, 50 mM HEPES-Na pH 8.58, 150 mM NaCl, 0.1 mM TCEP, 2 mM EGTA, 2 mM cGMP; three states (closed, intermediate 1, intermediate 2), C1 symmetry. Conditions: both partners purified.

Series [1] deals with the molecule itself. The description is as above.
Series [2] deals with T2, truncated human CNGB3 (amino acids 79-809) (human, UniProt Q9NQW8-1 79-809).
T2 construct: human CNGB3, NCBI NP_061971.3, amino acids 79-809 (amino acids 1-78 removed); Expressed as trunCNGA3-P2A-trunCNGB3 from one pEZT-BM vector; a residue of the P2A linker may precede the FLAG tag (surmised); also called truncated CNGB3; trunCNGB3
T2 sequence (looked up): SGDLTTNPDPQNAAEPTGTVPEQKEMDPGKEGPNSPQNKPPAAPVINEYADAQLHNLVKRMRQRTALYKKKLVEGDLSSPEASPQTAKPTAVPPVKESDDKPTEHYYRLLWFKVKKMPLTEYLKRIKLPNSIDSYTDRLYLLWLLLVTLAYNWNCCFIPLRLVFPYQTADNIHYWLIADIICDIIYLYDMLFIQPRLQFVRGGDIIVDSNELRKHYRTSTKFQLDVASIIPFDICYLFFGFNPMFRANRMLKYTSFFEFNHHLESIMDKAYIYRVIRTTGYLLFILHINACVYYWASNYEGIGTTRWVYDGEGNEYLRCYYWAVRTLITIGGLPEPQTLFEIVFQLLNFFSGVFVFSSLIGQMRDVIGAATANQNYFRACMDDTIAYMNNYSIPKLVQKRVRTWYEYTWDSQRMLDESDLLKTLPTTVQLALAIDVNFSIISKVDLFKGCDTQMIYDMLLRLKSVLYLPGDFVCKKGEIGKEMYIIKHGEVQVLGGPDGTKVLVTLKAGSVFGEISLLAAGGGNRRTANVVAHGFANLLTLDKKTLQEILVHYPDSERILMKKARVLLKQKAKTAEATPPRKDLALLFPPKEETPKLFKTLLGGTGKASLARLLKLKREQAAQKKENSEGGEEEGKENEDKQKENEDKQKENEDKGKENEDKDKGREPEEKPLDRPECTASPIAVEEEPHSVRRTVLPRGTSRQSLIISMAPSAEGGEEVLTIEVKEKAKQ
Kind of series: cryo-EM structure; truncated CNGA3/CNGB3 co-expressed (P2A) and co-purified, in POPG/POPC (1:1) nanodiscs with MSP2N2, 50 mM HEPES-Na pH 8.58, 150 mM NaCl, 0.1 mM TCEP, 2 mM EGTA, 4 mM cGMP; five states (closed, intermediate 1, intermediate 2, pre-open, open), C1 symmetry. The note with it: both partners purified.

Series [3] deals with the molecule itself. The description is as above.

B1: human CNGA3, full-length (natural protein, UniProt Q16281-1 1-694, looked up)
chain: MAKINTQYSHPSRTHLKVKTSDRDLNRAENGLSRAHSSSEETSSVLQPGIAMETRGLADSGQGSFTGQGIARLSRLIFLLRRWAARHVHHQDQGPDSFPDRFRGAELKEVSSQESNAQANVGSQEPADRGRSAWPLAKCNTNTSNNTEEEKKTKKKDAIVVDPSSNLYYRWLTAIALPVFYNWYLLICRACFDELQSEYLMLWLVLDYSADVLYVLDVLVRARTGFLEQGLMVSDTNRLWQHYKTTTQFKLDVLSLVPTDLAYLKVGTNYPEVRFNRLLKFSRLFEFFDRTETRTNYPNMFRIGNLVLYILIIIHWNACIYFAISKFIGFGTDSWVYPNISIPEHGRLSRKYIYSLYWSTLTLTTIGETPPPVKDEEYLFVVVDFLVGVLIFATIVGNVGSMISNMNASRAEFQAKIDSIKQYMQFRKVTKDLETRVIRWFDYLWANKKTVDEKEVLKSLPDKLKAEIAINVHLDTLKKVRIFQDCEAGLLVELVLKLRPTVFSPGDYICKKGDIGKEMYIINEGKLAVVADDGVTQFVVLSDGSYFGEISILNIKGSKSGNRRTANIRSIGYSDLFCLSKDDLMEALTEYPEAKKALEEKGRQILMKDNLIDEELARAGADPKDLEEKVEQLGSSLDTLQTRFARLLAEYNATQMKMKQRLSQLESQVKGGGDKPLADGEVPGDATKTEDKQQ
notes: human cone photoreceptor cyclic nucleotide-gated channel subunit CNGA3, NCBI NP_001289.1, full length; modelled residues about A158-I159 to D609-L614; Three copies of this subunit stand with one CNGB3 in the channel tetramer; MBP was cut off with P3C protease; residues of the P3C site may remain at the N-terminus; Cloned in the vector pEZT-BM (Addgene #74099); also called CNGA3L; A3L; source: HEK …
As to B1, the “stoichiometry N” value with human CNGB3, full-length came to 3 A3 per B3. Also, the binding result in series [1] is recorded as “binds”.

B2: truncated human CNGA3 (amino acids 152-694) (domain or fragment, UniProt Q16281-1 152-694, looked up)
chain: KTKKKDAIVVDPSSNLYYRWLTAIALPVFYNWYLLICRACFDELQSEYLMLWLVLDYSADVLYVLDVLVRARTGFLEQGLMVSDTNRLWQHYKTTTQFKLDVLSLVPTDLAYLKVGTNYPEVRFNRLLKFSRLFEFFDRTETRTNYPNMFRIGNLVLYILIIIHWNACIYFAISKFIGFGTDSWVYPNISIPEHGRLSRKYIYSLYWSTLTLTTIGETPPPVKDEEYLFVVVDFLVGVLIFATIVGNVGSMISNMNASRAEFQAKIDSIKQYMQFRKVTKDLETRVIRWFDYLWANKKTVDEKEVLKSLPDKLKAEIAINVHLDTLKKVRIFQDCEAGLLVELVLKLRPTVFSPGDYICKKGDIGKEMYIINEGKLAVVADDGVTQFVVLSDGSYFGEISILNIKGSKSGNRRTANIRSIGYSDLFCLSKDDLMEALTEYPEAKKALEEKGRQILMKDNLIDEELARAGADPKDLEEKVEQLGSSLDTLQTRFARLLAEYNATQMKMKQRLSQLESQVKGGGDKPLADGEVPGDATKTEDKQQ
notes: human CNGA3, NCBI NP_001289.1, amino acids 152-694 (amino acids 1-151 removed); Expressed as trunCNGA3-P2A-trunCNGB3 from one pEZT-BM vector; also called truncated CNGA3; trunCNGA3
On to B2, for which the binding result in series [2] and in series [3] was “binds” each time.

The term stoichiometry N denotes a count of units in the complex or per binding partner.
